In the DeepSol protein solubility set:

Experiment: soluble on expression in E. coli; label from the status in PepcDB or PDB records

Sequence | soluble on expression in E. coli
MGSDKIHHHHHHMLPFLRSELARCQPYHPNPGGTGMAMDILDTNECPYDLPTDLKQTLADRYVEAIASNRYPDGSHTDLKAAIVDYLSEQTAGQWQPGPEHVTVGNGSDELIRSILIATCLGGQGSVLVAEPTFSMYGIVAETLGIPVVRIGRDPQTWEMDLAAAETAITQTEGTPVRLCFVVHPNSPTANPLTEAEKDWLRQVPPQILVVIDEAYFEFSGETLLAELPQHPNWLITRTFSKALRLAAHRVGYGIGDPQLIAALEAIRLPYNLPSVAQLAATLALEARSQLLSAIPRLITERDRLYRKLQVVSQLQVWPSASNFLFLKTQSSSQTAALAAQLKAQGTLVRHTADGLRITIGSPAENERTLAHLQTAITQSLPATV | not soluble
MPDESAQVRFLIVGRTGWIANMVAELLEQRGERYAFASFRLEQREACELELDALRPQRVLNCAGVTGRPNVDWCEDHRRETVRSNVLGVLNLADCCASRGIHLTNFATGCLYHYDDGEHRPTAEGGRPFTEDDPPNFFGSYYSRTKAMVEELLRSAFDNVLILRLRMPVSDDLSPRSFVAKIARYEKVVNIPNSMTVLTELLPVALDMSERGLTGVYNFTNPGSISHNEVLELYRKYIDPKFQWKNFTLEEQAKILKAGRSNCELDVRKLLRDNPGAQIREVHAAMEEVFRRMQAKGVKPLAAP | not soluble
GPGSMSVRIRFILTGACPPSYSGKQVQLNFPLEDENGAPTTTAHLKQLIRTQWPENMSEMKEVVEKTEMRVLKTGNLLSDDTQIRSVLTATELSECSINPSAEGSGRADEDQKSVLMHLVFQSNQSQGRQRDGSAGGGRRDNASHDSGCCTML | soluble
MSELTKAQQYNFNKLQKKIRRNTGNAIADYNMIEDGDRIMVCLSGGKDSFTMLDILMSLKKSAPISFDLIAVNLDQKQPGFPAHILPEYLEKLGVEYKIVEEDTYSIVQDKIPEGKTTCSLCSRLRRGILYRTAKELGATKIALGHHRDDILETMFLNMFYGGKLKGMPPKLVSDNGEHVVIRPLAYCREKDIIKYADMRDYPIIPCNLCGSQPNMQRQNVKQMLNTWDKQFPGRIETMFTAMQNVVPSHLADFNTFDFKSINRDSGVINGGDIGFDKEEMPTLPVDADDAVAEFDPSLKLDVVNVD | not soluble
ESSVNPVVLDFEDGTVMSFGEAWGDSLKCIKKVSVSQDLQRPGNKYALRLDVEFNPNNGWDQGDLGTWIGGVVEGQFDFTGYKSVEFEMFIPYDEFSKSQGGFAYKVVINDGWKELGSEFNITANAGKKVKINGKDYTVIHKAFAIPEDFRTKKRAQLVFQFAGQNSNYKGPIYLDNVRIRPEDA | soluble
MKEQNESFVVDFVGGAVGHRFRSGEGRGQALPKAAGFTKGRTPKIVDATAGLGRDAFLLASLGAEVTLIERSPGMHAHLADGISRALEAGGAYAEAASRMTLLQGDSRQLLKELSPEVVVIDPMHPPRHNTALVKKEMRVLRELVGSDPDQVELMEVALAHATKRVVLKWPLRADPMPGIRKPSHQIIGKNTRYDVFMIFGNSLDQQELEHHHHHH | soluble
DADPTFDFIGYLETLPQTSGMYMGNASIIPRNYRKYLYHAYLAYMEANGYRNVLSLKMFGLGLPVMLKEYGLNYEKRHTKQGIQTNLTLKEESYGDWLPK | soluble
KSVVIGKDALIGWHGGANQSDEMWDQSVPSQYEKQFYRYLTRLRIKEAEFYNKVGVDPNITVYGHTRTNTCQRSTLANGWYYTESDMRHMGIKNLTVQGELLNTLNYNNSEINSCLMPQIFN | not soluble
MGSDKIHHHHHHMEAVKTGIEGFDDIFGGFYRGQIILIAGNPGSGKTTFCAKFLYEGARRFGENGLYISIGESKEEFYEYMKKLGMDFEKLEKTGSFKYVEMLAPTSEDALMQLSRELTKNALELKATRIVIDSISPILSMNPETARAILHNALKTISRELKSVVLMTEEMPIGETRIGQGIEEFVVDGVIVLRLEVPEAGAPVRTMSVLKLRGKPLDRAVYNFEIGPPSGVRVLMHGIEELESNIDFNNKIATGIDGFDELLGGGIIRGTATAFVGPSGGGKTVLMLSAAANVAINGENVTYISFEEPRQQIEETLKFLGYGEVEGLEILSLNPRMISLRALYDILSKTVLDHRTMLFIDGLNAIRREFGEAFHRVVRDVVFQMKKNGITVVISLIGGTIKETLLSTIVDNVVELRVVEKDGELRREIAVRKARMSRASNEVKRLVFDGKPAVR | not soluble
AVRQLDRQGRDDVEVAVLAPQPELRIRPRFYEPDVQRMAAPLGELFAAVGVRFVQGSAQRIDVAGKRVEYRDAEGTLAQLDYDRLVLAAGSGVWRPASVAGIDAAFDVDQLEDALRLEAHLHALRDLPDSPARNTVVVAGGGFTGIETATEMPARLRAILGEKAALRVIVVDRGAAIGASMGADLSGLIAEASAELGVEWCLGRSVAAVDAEGVTLDDGQRIEAKTVVWTVGVRASTLTGQIPGERDAQGRLHVDRNLKVLGLDDVYATGDVARAATDDLGNHALMTCQHAIALGRSAGNNVAADLLGVEPIPYSQVKYVTCLDLGGWGAVFTEGWDRQVRFVREEGKKIKTEINGVWIYPPAADRAVALAAADPLIPVVA | not soluble
MFIGGAIISFLFLFGYMWKEAHSNRIRHVTLSFPHFPDNGPPLTIFFISDIHRRSVSCRMLETVKGKADLVVIGGDLAEKGVPAARVRENVRRLQTVAPVYFVWGNNDDEVDYDLQSLLEEERVYVLKNKAEVWEHGGVPIALIGVGDVSRKEADIARALEHVPPESFRILACHNPAIIARLEDEQHISLVLSGHTHGGQIRLFSFGLYEKGGLKWHGNTALFTSNGYGTTGVPLRLGAPAETHLIKIVPGKLATEKLEHHHHHH | soluble
MNNETTTLISLKEAMKRVDHKLQALETQFKELDFTKDNLMQKFEHHSKALASQAAQDEMWTAVRALQLTSMELNILYSYVIEVLICLHTRVLEKLPDLVRGLPTLASVLRRKVKNKRVRVVWESILEECGLQEGDITALCTFFIARGNKAEHYTAKVRQMYIRDVTFLITNMVKNQALQDSLLRAVQVIEKGKAVRTPEKQKSSLEELIPSVKN | soluble
GPGSMLLSVPEAHTEVITSLQFSPHHASVLCSTSGDDTAALWDLRNPSDSCNIARLTHHREPVNHALFIEESEPCLLTASDDRTIAYWDVREISQPVAVIRGFGDGINKMLRLPVSRRSGNACVNGGACCLIVSACDDGAVYIHDVALCGDTRRQSGMPVEGAGDTFSSTGNLVDRFMASTSTVNDLVLSPNPNLLLTASEDCAIRLWDIGPIFGGQRTQDERLVTSFDEFENPVNHIAVINSPRVTQFVQDEGQGGHSGCWLYAACSEFIFAVDLDPVSGALGEGARTLTGHQDYVRGLEFVGDDTLLTVSDDSTVIEWSLRTSNPVRQVKLHEGLVMASAVSAARDVLATGTDGGEMRVWRLPFLTE | not soluble
MGILAERLDSLSIETSSPDGQITGVFRPTSALSVHFRDGGYRGYTERGLERQLAALVASAWARYWRARQAAVAEATGEPAVPHQPWDTAGRRYRAERDRTRCEGMSAGHRVHVSHTGLRDWNVVVRDGTLSTLDEFGFAAELESGFTAAMRDHRHKLMMLRDKHLPR | not soluble
MINMKPQYYLGMMSGTSLDGVDIVLVDFSQDPQLILSDFFPMPEDLREKLTTLIQVGETTLQNLGELDHKLALLYSDCVNAFLQKNTFLPNQIQAIGCHGQTVWHSPNSQFPFTMQLGDMNLLAAKTGISVIGDFRRKDMAWGGQGAPLVPAFHEAVFSNSNFATAVLNIGGISNVSILFPNQAVIGFDTGPGNTLLDQWIEKHQGLRYDENGEWAAKGNVNKVLLDELLNEPFFSLPAPKSTGRELFNLVWLNHKIAKIREKLTALSVEMSFRPEDVQATLVELTVTSIVNALNQLQTDLPKRLLVCGGGAKNSLIMRGLHDNLLDWQVSTTTEQGFDIDYVEAAAFAWLAYCRINNLPANLPSVTGAKSAVSLGAIFPKD | not soluble
MDINLEYSLHDTQFFWQALSIRYHHAQRLKQLQRELAGFEQIKKFTLLPEAFSMEAGLITPTLKQRCKMIYHKYAHEINAMYNNLEHHHHHH | not soluble
MSLDTPRIILHNSDTAPLTHWLRAAFPQADFRECNSYEALPALIEGYRPEVVYSVRFAGTPGFPRDALFGPGGPRWIANGGAGTDHYGQWDPGQTTVTNTAGVAAEMMAEYILGGFLHFSLDVPGLQKDKAARVWNARTVRPLAGKTLLIIGLGHTGRAVAARSKAFGMKVLGTRARPKPMENVDEVHAADDLHDLLPHADFIAVSTPLIPATRGLIGAQEIAAMKSGVIFADVSRGGVVDQTALYDALSVGHVAAAALDVFETEPLPEISPLWALENVIISPHCSSVFAEWEEASFELFLQNLGRWMRGEGHHHHHH | not soluble
MGSDKIHHHHHHSRSGEKAAQQLVDYFIYQEKPETFSQTFREPKVLAEHLQTSRQQFQKQFFNSLKEMNAEVTETEAQKLSAELLAQVKKKASYQLVATKELNGQATITFQIKGLDFVTAIEDTTTALLQQTQQATQALDMQHTLAVLKKEIQQINVSHEPVELPLTVKQVEGQWYLPAVEQLRLNQFFLAFVTGKEDTDQLTEALDTILTQAEQKVVTADERTAIAGN | not soluble
MPFDFETVLNRRHTNAVKWDVADDELPMWVADMDFETAPVIKQALIKRAQFGVFGYEEVPMAYYEAVADWWATEHNFRPQIEWLMFCTGVVPAISSIVRKMTAAGDNVLVQAPVYNIFYHSIENNGRHTLSSDLVARDASYAIDWDDLTKKLADPLTTMMILCNPQNPIGVVWSRATLQRLGELCLKYHVLVVADEIHCDLTLNGNAYTPFSSLTAPVAHNSISCISPSKTFNVAALHAATLIIPDAHVRALVSRGINNDELAEPNSFAIPASIAAYTEGHDWVAALRTKLAANQRQVQTYLTAELPQVKLVEAQATYLLWLDVSQVTTDSAALAAFIRQRTGLFLSAGDVYRGDGNRFLRLNVACPTTTLTDGLARLKAGITAYQQVQA | not soluble
MAPKDITFVERCYKYIDMNKNNWSPYTVTSTKSWVKNYIEPFFKNLKLTEVNPSSVQAFVNYNFNNSTFTSAKVRYSFLSSVIREAYRLREIQENSCDFIKLPLEHHHHHH | soluble
MTVSSSAWMPRLISQQILSEYVKSLEVEADKVVIPGQNTPVFSWDRDGNGNLSIDTPLLKVRGESLATQADLTTISLTPGPKGELWQTSVERLDIKVDKHISLTFKNGVRID | not soluble
MGSDKIHHHHHHMKLLYFKEHLSCINYQINVNTGFVYYNLEKDSVSKIDNSASPCILFLLDGEVSIDSGEYQNVHIEKDKMVLIPQHVDNKIEVIYDAKCLLLFWNKDIRVCDKVYMNSLSSYKERKKEMCVLPIRDPLQAVLNSVVAYLYAKMQCKHMHLIKQQEVLLVLRGYYTKKELFTFFSSILGNTGHFEDFVMNNYRKVKSVKEFAGLYCTSERSFNRKFQNCFKESPYQWMQKKKAELIREKISESDTPFQEIAMDFDFNSQAHFTSYCKRLFGMTPSKLRTESKKVAPDLEY | not soluble
MSLSVTIFSEFESEVRSYCRAFPAVFSRAKGEYLLAEDGRKFLDFFAGAGSLNYGHNDDDMIEAAISYMRQDGVLNGLDLNTSAKAEFIETFRTLVLQPRDLNYKLQFTGPTGANAVEAAMKLARKVTQRPDIACFSGGYHGMSLGALSVTANAVKRASLVVQVPGVVRLPYEGAIEGSVASQLRVLQDMLCRPGFGIDPPAAFLLECVQGEGGVNCASAEWLQGVAALARKLGALLIVDEIQTGCGRTGRFFSFEHACIEPDIICLSKSLGGGGLPFSLNLIKPEIDIWNPGEHNGTFRGNNLAMVMATAALRKYWATPHFAHEVEEKGLAVAACLKNALQAFDGQVRVVGKGLMIGLRFQHAEHAREASRRLFESGLLIEVCGPRNEVLKLMPVLTMDRQAMLAAASRIAACAQALLSRSLESETEGHHHHHH | soluble
